Data reported in US20170355774A1 (Regeneron, published 2017).
Substitutions are numbered along the chain they refer to. Names and notes keep the numbering of the source. Each block holds one binder with its values, some of them ahead of it.

Experiments:
[1] = target: T1, human GITR (amino acids M1-V241, NCBI Accession #NP_004186.1) expressed on cells (human, UniProt Q9Y5U5 26-241); test: cell-based or functional assay
T1 sequence: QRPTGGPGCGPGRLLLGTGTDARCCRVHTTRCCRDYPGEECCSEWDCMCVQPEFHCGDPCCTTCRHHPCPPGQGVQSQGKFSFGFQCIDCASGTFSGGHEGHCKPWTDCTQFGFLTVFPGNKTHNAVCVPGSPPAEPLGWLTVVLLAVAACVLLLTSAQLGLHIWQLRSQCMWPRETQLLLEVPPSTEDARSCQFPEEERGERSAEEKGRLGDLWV

[2] = target: T1, human GITR (amino acids M1-V241, NCBI …); test: cell-based or functional assay; remark: listed apart in the source
[3] = target: T1, human GITR (amino acids M1-V241, NCBI …); test: cell-based or functional assay; remark: listed apart in the source
[4] = target: T1, human GITR (amino acids M1-V241, NCBI …); test: cell-based or functional assay; remark: listed apart in the source
[5] = target: T1, human GITR (amino acids M1-V241, NCBI …); test: ECL cell binding, hGITR/HEK293-D9
Procedure: Nonspecific binding sites were blocked with 2% BSA (w/v)+PBS for 1 h at room temperature (RT). Next, serial dilutions of anti-GITR antibodies, ranging from 1.7 pM to 100 nM, were added to cells for 1 h at RT. Plates were then washed to remove unbound antibodies (AquaMax2000 plate washer, MSD Analytical Technologies) and plate-bound antibodies were detected with a SULFO-TAG™ conjugated anti-human kappa light chain IgG antibody (Jackson Immunoresearch) for 1 h at RT.
Following washes, luminescent signals were recorded with a SECTOR Imager 6000 (MSD) instrument. Direct binding signals (relative light units, RLU) were analyzed as a function of the antibody concentration and data were fitted with a sigmoidal (four-parameter logistic) dose-response model using GraphPad Prism™ software. […] The signal detected with 100 nM antibody binding to the hGITR expressing cells versus parental cells was recorded as an indication of intensity and specificity of GITR binding.

hGITR.mmh = target: T2, hGITR.mmh (human); test: SPR 37C, mAb capture
T2 construct: soluble monomeric construct; also called human (h) GITR.mmh; monomeric human GITR
T2 chain: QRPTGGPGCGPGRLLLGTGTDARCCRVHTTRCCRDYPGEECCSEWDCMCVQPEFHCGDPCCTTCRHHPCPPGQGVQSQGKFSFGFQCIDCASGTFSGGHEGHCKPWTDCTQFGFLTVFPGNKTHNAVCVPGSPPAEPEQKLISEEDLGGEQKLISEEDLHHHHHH
Procedure: (§1) (Table 3). […] GITR proteins were injected over the sensor surface at a flow rate of 30 μL/minute. All Biacore binding studies were performed in a buffer composed of 0.01M HEPES pH 7.4, 0.15M NaCl, 3 mM EDTA, 0.05% v/v Surfactant P20 (HBS-ET running buffer). Antibody-reagent association was monitored for 4 minutes while dissociation in HBS-ET running buffer (10 mM HEPES, 150 mM NaCl, 3 mM EDTA, 0.05% (v/v) Surfactant P20, pH 7.4) was monitored for 10 minutes. Kinetic association (kₐ) and dissociation (kd) rate constants were determined by fitting the real-time sensorgrams to a 1:1 binding model using Scrubber 2.0c curve fitting software. Binding dissociation equilibrium constants (KD) and dissociative half-lives (t ½) were calculated from the kinetic rate constants as: KD [M]=kd/kₐ; and t_{1/2}(min)=(ln 2/(60*kd). Results are summarized in Table 3.

hGITR.mFc = target: T3, hGITR.mFc (human); test: SPR 37C, mAb capture
T3 construct: soluble dimeric construct with mouse Fc; also called dimeric human GITR
T3 chain: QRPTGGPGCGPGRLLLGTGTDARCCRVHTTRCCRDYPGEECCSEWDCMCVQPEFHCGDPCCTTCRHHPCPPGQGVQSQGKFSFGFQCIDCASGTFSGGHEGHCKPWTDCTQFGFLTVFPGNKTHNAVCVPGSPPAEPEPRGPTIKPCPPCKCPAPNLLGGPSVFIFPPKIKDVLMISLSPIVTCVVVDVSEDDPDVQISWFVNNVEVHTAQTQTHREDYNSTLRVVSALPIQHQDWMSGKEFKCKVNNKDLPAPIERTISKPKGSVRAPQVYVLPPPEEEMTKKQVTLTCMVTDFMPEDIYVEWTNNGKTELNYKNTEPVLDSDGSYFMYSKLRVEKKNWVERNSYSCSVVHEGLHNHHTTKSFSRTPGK
Procedure: as §1

mfGITR.mmh = target: T4, mfGITR.mmh (Macaca fasicularis); test: SPR 37C, mAb capture
T4 construct: soluble monomeric construct; also called Macaca fasicularis (mf) GITR.mmh; cynomolgus GITR protein
T4 chain: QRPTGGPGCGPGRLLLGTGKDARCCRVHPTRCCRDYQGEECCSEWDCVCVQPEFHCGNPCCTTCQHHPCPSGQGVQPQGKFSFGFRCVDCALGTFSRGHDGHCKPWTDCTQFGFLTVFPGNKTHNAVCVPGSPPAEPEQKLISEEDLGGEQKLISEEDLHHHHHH
Procedure: as §1

fold activation, T-cell proliferation, 22 nM, non-anchored, donor 1 [1]: 0.7 fold
fold activation, T-cell proliferation, 22 nM, non-anchored, donor 2 [1]: 0.9 fold
fold activation, T-cell proliferation, 22 nM, non-anchored, donor 3 [1]: 0.9 fold
fold activation, T-cell proliferation, 22 nM, non-anchored, donor 4 [1]: 1.4 fold
fold activation, T-cell proliferation, 22 nM, non-anchored, mean [1]: 1 fold
% Activation, NF-kB-Luc, non-anchored [2]: 30%
% Blocking, NF-kB-Luc, non-anchored [2]: 40%
EC50, hGITR activation, NF-kB-Luc, non-anchored [2]: 1.2 nM
IC50, blocking of hGITRL stimulation, NF-kB-Luc, non-anchored [2]: 0.9 nM
fold activation, T-cell proliferation, 33 nM, FcgR anchored, donor 1 [3]: 1 fold
fold activation, T-cell proliferation, 33 nM, FcgR anchored, donor 2 [3]: 0.7 fold
fold activation, T-cell proliferation, 33 nM, FcgR anchored, donor 3 [3]: 1.1 fold
fold activation, T-cell proliferation, 33 nM, FcgR anchored, donor 4 [3]: 1.8 fold
fold activation, T-cell proliferation, 33 nM, FcgR anchored, donor 5 [3]: 1.3 fold
fold activation, T-cell proliferation, 33 nM, FcgR anchored, mean [3]: 1.2 fold
fold activation, T-cell proliferation, plate-bound Ab 10.6 nM, donor 1 [4]: 10 fold
fold activation, T-cell proliferation, plate-bound Ab 10.6 nM, donor 2 [4]: 4 fold
fold activation, T-cell proliferation, plate-bound Ab 10.6 nM, donor 3 [4]: 4 fold
fold activation, T-cell proliferation, plate-bound Ab 10.6 nM, donor 4 [4]: 7 fold
fold activation, T-cell proliferation, plate-bound Ab 10.6 nM, donor 5 [4]: 4 fold
fold activation, T-cell proliferation, plate-bound Ab 10.6 nM, donor 6 [4]: 11 fold
fold activation, T-cell proliferation, plate-bound Ab 10.6 nM, donor 7 [4]: 3 fold
fold activation, T-cell proliferation, plate-bound Ab 10.6 nM, donor 8 [4]: 2 fold
fold activation, T-cell proliferation, plate-bound Ab 10.6 nM, mean [4]: 5 fold
Average Signal (RLU) at 100 nM [5]: 6870 RLU
EC50 [5]: 0.45 nM
Kd (hGITR.mmh): 36.6 nM
koff (hGITR.mmh): 0.00935 s⁻¹
kon (hGITR.mmh): 255000 M⁻¹ s⁻¹
t½ (hGITR.mmh): 1.2 min
Kd (hGITR.mFc): 0.597 nM
koff (hGITR.mFc): 0.000719 s⁻¹
kon (hGITR.mFc): 1.21e+06 M⁻¹ s⁻¹
t½ (hGITR.mFc): 16.1 min
Kd (mfGITR.mmh): 39.3 nM
koff (mfGITR.mmh): 0.00507 s⁻¹
kon (mfGITR.mmh): 129000 M⁻¹ s⁻¹
t½ (mfGITR.mmh): 2.3 min
B1: H4H14508P (antibody, human IgG4, V domains shown)
VH: QVQLVESGGGVVQPGRSLRLSCAASGLTVSSYVMHWVRQAPGKGLEWVAIIWYDGSNKYYGDSVKGRFTISRDNSKKTLYLQMNSLRAEDTAVYYCARGRPLSSSSSDYYGLDVWGQGTTVTVSS
VL: AIQMTQSPSSLSASVGDRVTIICRASQGIRNDLGWYQQKPGKAPNLLIYAASSLQSGVPSRFSGSGSGTDFTLTISSLQPEDFATYYCLQDYNYPWTFGQGTKVEIK
notes: human IgG4 (H4H)

fold activation, T-cell proliferation, 22 nM, non-anchored, donor 1 [1]: 0.7 fold
fold activation, T-cell proliferation, 22 nM, non-anchored, donor 2 [1]: 0.9 fold
fold activation, T-cell proliferation, 22 nM, non-anchored, donor 3 [1]: 0.9 fold
fold activation, T-cell proliferation, 22 nM, non-anchored, donor 4 [1]: 0.8 fold
fold activation, T-cell proliferation, 22 nM, non-anchored, mean [1]: 0.8 fold
% Activation, NF-kB-Luc, non-anchored [2]: 10%
% Blocking, NF-kB-Luc, non-anchored [2]: 90%
EC50, hGITR activation, NF-kB-Luc, non-anchored [2]: 1 nM
IC50, blocking of hGITRL stimulation, NF-kB-Luc, non-anchored [2]: 2.6 nM
fold activation, T-cell proliferation, 33 nM, FcgR anchored, donor 1 [3]: 0.6 fold
fold activation, T-cell proliferation, 33 nM, FcgR anchored, donor 2 [3]: 0.2 fold
fold activation, T-cell proliferation, 33 nM, FcgR anchored, donor 3 [3]: 0.8 fold
fold activation, T-cell proliferation, 33 nM, FcgR anchored, donor 4 [3]: 0.8 fold
fold activation, T-cell proliferation, 33 nM, FcgR anchored, donor 5 [3]: 0.1 fold
fold activation, T-cell proliferation, 33 nM, FcgR anchored, mean [3]: 0.5 fold
Average Signal (RLU) at 100 nM [5]: 8120 RLU
EC50 [5]: 0.57 nM
Kd (hGITR.mmh): 31.4 nM
koff (hGITR.mmh): 0.0123 s⁻¹
kon (hGITR.mmh): 392000 M⁻¹ s⁻¹
t½ (hGITR.mmh): 0.9 min
Kd (hGITR.mFc): 0.297 nM
koff (hGITR.mFc): 0.000269 s⁻¹
kon (hGITR.mFc): 906000 M⁻¹ s⁻¹
t½ (hGITR.mFc): 42.9 min
Kd (mfGITR.mmh): 55.8 nM
koff (mfGITR.mmh): 0.0107 s⁻¹
kon (mfGITR.mmh): 191000 M⁻¹ s⁻¹
t½ (mfGITR.mmh): 1.1 min
B2: H4H14476P (antibody, human IgG4, V domains shown)
VH: QVQLVESGGGVVQPGRSLRLSCAASGFTFSNYGIHWVRQPPGQGLEWVAVIWYAGSNKFYADSVKGRFTISRDNSKNSAYLQMNSLRAEDTAVYYCARAPLGYYYYGMDVWGQGTTVTVSS
VL: B1 VL with A1D, I22T, N45K, L46R, A50D, Q55E, D70E, D91H, Y92N, N93S
notes: human IgG4 (H4H)

fold activation, T-cell proliferation, 22 nM, non-anchored, donor 1 [1]: 0.5 fold
fold activation, T-cell proliferation, 22 nM, non-anchored, donor 2 [1]: 1.2 fold
fold activation, T-cell proliferation, 22 nM, non-anchored, donor 3 [1]: 0.8 fold
fold activation, T-cell proliferation, 22 nM, non-anchored, donor 4 [1]: 1 fold
fold activation, T-cell proliferation, 22 nM, non-anchored, mean [1]: 0.9 fold
% Activation, NF-kB-Luc, non-anchored [2]: 50%
% Blocking, NF-kB-Luc, non-anchored [2]: 60%
EC50, hGITR activation, NF-kB-Luc, non-anchored [2]: 0.4 nM
IC50, blocking of hGITRL stimulation, NF-kB-Luc, non-anchored [2]: 3.8 nM
fold activation, T-cell proliferation, 33 nM, FcgR anchored, donor 1 [3]: 1.5 fold
fold activation, T-cell proliferation, 33 nM, FcgR anchored, donor 2 [3]: 1.1 fold
fold activation, T-cell proliferation, 33 nM, FcgR anchored, donor 3 [3]: 1.1 fold
fold activation, T-cell proliferation, 33 nM, FcgR anchored, donor 4 [3]: 1.7 fold
fold activation, T-cell proliferation, 33 nM, FcgR anchored, donor 5 [3]: 0.9 fold
fold activation, T-cell proliferation, 33 nM, FcgR anchored, mean [3]: 1.2 fold
fold activation, T-cell proliferation, plate-bound Ab 10.6 nM, donor 1 [4]: 1 fold
fold activation, T-cell proliferation, plate-bound Ab 10.6 nM, donor 2 [4]: 4 fold
fold activation, T-cell proliferation, plate-bound Ab 10.6 nM, donor 3 [4]: 4 fold
fold activation, T-cell proliferation, plate-bound Ab 10.6 nM, donor 4 [4]: 5 fold
fold activation, T-cell proliferation, plate-bound Ab 10.6 nM, donor 5 [4]: 4 fold
fold activation, T-cell proliferation, plate-bound Ab 10.6 nM, donor 6 [4]: 12 fold
fold activation, T-cell proliferation, plate-bound Ab 10.6 nM, donor 7 [4]: 3 fold
fold activation, T-cell proliferation, plate-bound Ab 10.6 nM, donor 8 [4]: 2 fold
fold activation, T-cell proliferation, plate-bound Ab 10.6 nM, mean [4]: 4 fold
Average Signal (RLU) at 100 nM [5]: 10100 RLU
EC50 [5]: 0.43 nM
Kd (hGITR.mmh): 22.7 nM
koff (hGITR.mmh): 0.00784 s⁻¹
kon (hGITR.mmh): 345000 M⁻¹ s⁻¹
t½ (hGITR.mmh): 1.5 min
Kd (hGITR.mFc): 0.389 nM
koff (hGITR.mFc): 0.000479 s⁻¹
kon (hGITR.mFc): 1.23e+06 M⁻¹ s⁻¹
t½ (hGITR.mFc): 24.1 min
Kd (mfGITR.mmh): 20.1 nM
koff (mfGITR.mmh): 0.00334 s⁻¹
kon (mfGITR.mmh): 166000 M⁻¹ s⁻¹
t½ (mfGITR.mmh): 3.5 min
B3: H4H14521P (antibody, human IgG4, V domains shown)
VH: EVQLVESGGGLVQPGGSLRLSCAASGFTFRVYEMNWVRQAPGKGLEWISYIGSSGFTIYYADSVKGRFTISRDNAKNSLFLQLNSLRAEDTAVYYCARGWNDGVPNYLGMDVWGQGTTVTVSS
VL: DIQMTQSPSSLSASVGDRVTITCQASQDINKYLNWYQQKPGKAPKLLIYDASNLETGVPSRFSGSGSGTDFTFTISSLQPEDIARYHCQQYDKIPLTFGGGTKVEIK
notes: human IgG4 (H4H)
